From article PMC4348373, “YY1 suppresses FEN1 over-expression and drug resistance in breast cancer”

Legend:
YY1 [1] = target: T1, YY1 (UniProt P25490 1-414); assay: EMSA; complex diminished by anti-YY1, not by IgG (Fig 2C); Pull-down: 25 mM Tris, 150 mM NaCl, pH 7.2, room temperature, 30 min; EMSA: LightShift chemiluminescent kit, 5% native PAGE, buffer not stated; settings: protein: recombinant; tags: N-terminal 3xFlag; label: 5'-biotin
YY1 [2] = target: T1, YY1; assay: EMSA; Pull-down: 25 mM Tris, 150 mM NaCl, pH 7.2, room temperature, 30 min; EMSA: LightShift chemiluminescent kit, 5% native PAGE, buffer not stated; settings: protein: recombinant; tags: N-terminal 3xFlag; label: 5'-biotin

T1 sequence (P25490 whole entry): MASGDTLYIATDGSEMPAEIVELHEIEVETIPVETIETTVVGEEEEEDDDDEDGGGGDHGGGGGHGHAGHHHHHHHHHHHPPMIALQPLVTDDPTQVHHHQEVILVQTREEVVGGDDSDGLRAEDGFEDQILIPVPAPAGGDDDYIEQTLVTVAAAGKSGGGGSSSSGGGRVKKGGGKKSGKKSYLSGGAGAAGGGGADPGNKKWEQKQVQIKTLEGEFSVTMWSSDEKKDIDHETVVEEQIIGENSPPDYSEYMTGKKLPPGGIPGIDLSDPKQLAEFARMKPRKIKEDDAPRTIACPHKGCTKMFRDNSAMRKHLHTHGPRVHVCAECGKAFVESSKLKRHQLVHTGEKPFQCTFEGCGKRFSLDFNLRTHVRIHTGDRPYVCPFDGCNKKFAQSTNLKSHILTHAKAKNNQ

Row | Binder | binding result (YY1 [1]) | binding result (YY1 [2])
1 | WT FEN1 (dsDNA) DNA 1: AACGCTCTCACCATTTTGCCCCGCGAAG DNA 2: CTTCGCGGGGCAAAATGGTGAGAGCGTT | binds | 
2 | MUT FEN1 (dsDNA) DNA 1: AACGCTCTCAGCAATTTGCCCCGCGAAG DNA 2: CTTCGCGGGGCAAATTGCTGAGAGCGTT |  | no binding
